Assay [1] deals with T1, human IL4Rα/Fc (human, UniProt P24394 26-232, limits assumed).
T1 construct: also called rh IL4Ra/Fc
T1 sequence (looked up): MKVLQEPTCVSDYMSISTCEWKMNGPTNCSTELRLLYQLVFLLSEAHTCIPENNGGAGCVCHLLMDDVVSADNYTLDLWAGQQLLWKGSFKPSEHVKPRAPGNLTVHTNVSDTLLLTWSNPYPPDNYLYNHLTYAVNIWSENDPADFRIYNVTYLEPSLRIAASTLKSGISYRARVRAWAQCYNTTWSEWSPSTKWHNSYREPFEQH
Kind of assay: ELISA, antigen directly coated, IgG4. In general terms: In an ELISA, binding on a coated surface is turned into a signal by an enzyme label.

The target in assay [2] is T2, cynomolgus IL12Rβ1 (cynomolgus, UniProt A0A2K5VWV1 24-662).
T2 construct: whole, on cells; also called cyno IL12Rβ1; Cyno IL-12Rβ1
The assay can be described thus: FACS, 1 µg/ml IgG4, BaF3 cells expressing cyno IL12Rβ1. Here is the method:
(§1) Cells of the respective cell line (BaF3 cells stable transfected with cyno and human IL12Rβ1; HEK EBNA and Jurkat cells stable transfected with cyno IL12Rβ1) were counted and adjusted to 2×10⁷ cells/ml in PBS/3% FCS/0.02% NaN₃ (FAGS buffer). FAGS staining was performed in V-bottom 96-well microtiter plates (NUNC™, Wiesbaden, Germany) and 1×10⁵ cells per well were mixed with a) purified Fab fragments or b) purified IgG4 or c) positive control antibody (mouse anti IL12Rβ1, R&D Systems, Cat#: MAB839), diluted in FACS buffer and incubated at […] for 1 h. Cells were then washed 2× with 200 μl FACS buffer/well and taken up in 100 μl phycoerythrin-conjugated goat anti-human IgG (H+L) secondary antibody (Jackson ImmunoResearch) which has been diluted 1:200 in FACS buffer. After 45 min incubation at 4° C. cells were washed 3× with FAGS buffer, resuspended in 100 μl of FACS buffer and cell surface binding of IL12Rβ1 specific antibodies was measured via FL2 fluorescence intensity of cells in FACSCalibur™ (Becton Dickinson).
(In general: In flow cytometry, cells or beads pass a laser one at a time.)

Assay [3] has as its target T2, cynomolgus IL12Rβ1. Kind of assay: FACS on Baf3 cells transfected with cyno IL12Rβ1, IgG4. The procedure: as §1
The target in assay [4] is T3, human IL12Rβ1 (human, UniProt P42701 24-662).
T3 construct: On stably transfected Ba/F3 cells in FACS; on primary human T cells within PBMC in the functional assay; also called human IL12Rβ1 transfected Baf3 cells; Ba/F3/IL12Rβ1 expressing cells
The assay can be described thus: FACS on Baf3 cells transfected with human IL12Rβ1, IgG4. The procedure:
as §1

The target in assay [5] is T4, recombinant human IL12Rβ1/Fc fusion protein (human, UniProt P42701 24-545).
T4 construct: Bought from R&D Systems; Partly used biotinylated; also called rh IL12Rβ1
Kind of assay: BioVeris competition; Fab titrated with IL12Rβ1/Fc, competitor rhIL-23 on beads. Here is the method: (§2) For the IL12 and IL23 binding inhibition assay, 25 μg recombinant human IL12 and 20 μg IL23 (R&D Systems) were directly coupled (NHS/EDC coupling) to 250 μl carboxylic acid M-270 Dynal magnetic beads (2×109 beads/ml), 50 μl Fab antibodies per well (20 nM stock) in 1:4 dilution steps (Fab concentration: 0.6 pM-10 nM) were incubated for 2 h with 50 μl of 40-100 pM IL12Rβ1/Fc fusion in 96 well plates (Nunc). 25 μl IL12 or IL23 coated beads and 1:500 diluted Streptavidin detection antibody labeled with BV-tag™ according to instructions of supplier (BioVeris Europe) were added to each well and incubated for 1.5 h. Detection was performed by BioVeris M-384 SERIES® Workstation (BioVeris Europe). EC50 determination was performed by evaluation of the resulting data by a 4-parameter logistic fit model (XLfit, IDBS).

Assay [6] has as its target T4, recombinant human IL12Rβ1/Fc fusion …. Kind of assay: solution equilibrium titration (SET), BioVeris ECL, Fab.
The target of assay [7] is T2, cynomolgus IL12Rβ1. Kind of assay: FACS, 1 µg/ml Fab, Jurkat cells expressing cyno IL12Rβ1. The procedure: as §1
Assay [8] concerns the target T2, cynomolgus IL12Rβ1. Kind of assay: FACS, 1 µg/ml Fab, HEK cells expressing cyno IL12Rβ1. The procedure: as §1
Assay [9] deals with T4, recombinant human IL12Rβ1/Fc fusion …. Kind of assay: solution equilibrium titration (SET), BioVeris ECL, Fab. The source holds these as a separate data set.
Assay [10] shares this target. The assay can be described thus: BioVeris competition; Fab titrated with IL12Rβ1/Fc, competitor rhIL-12 on beads. Here is the method:
as §2

Where two headings read alike, the source gives them in different places.

By EC50 is commonly meant the concentration giving half of the maximal effect. The Kd is the free concentration of one partner at which half of the binding sites on the other are occupied at equilibrium, for simple one-to-one binding.

B1: MOR05281 IgG4 (antibody, V domains shown)
VH: QVQLKESGPALVKPTQTLTLTCTFSGFSLSTRGVGVSWIRQPPGKALEWLALIYWDEDKYYSTSLKTRLTISKDTSKNQVVLTMTNMDPVDTATYYCARYQSGYYYNNDGWGVDIWGQGTLVTVSS
VL: DIQMTQSPSSLSASVGDRVTITCRASQSISSWLNWYQQKPGKAPKLLIYAASSLQSGVPSRFSGSGSGTDFTLTISSLQPEDFATYYCQQYYAFPHTFGQGTKVEIKR
notes: IgG4
Turning to B1, the binding result in assay [1] is “no binding”. Besides, in [2], the “MFI (mean fluorescent intensity)” value was 144. Moreover, the EC50 in assay [3] was found to be 1 nM; in assay [4] it was 1.2 nM.

B2: MOR05281 Fab (Fab, V domains shown)
VH: QVQLKESGPALVKPTQTLTLTCTFSGFSLSTRGVGVSWIRQPPGKALEWLALIYWDEDKYYSTSLKTRLTISKDTSKNQVVLTMTNMDPVDTATYYCARYQSGYYYNNDGWGVDIWGQGTLVTVSS
VL: DIQMTQSPSSLSASVGDRVTITCRASQSISSWLNWYQQKPGKAPKLLIYAASSLQSGVPSRFSGSGSGTDFTLTISSLQPEDFATYYCQQYYAFPHTFGQGTKVEIKR
On to B2, for which the EC50 in assay [5] worked out at 0.07 nM; in assay [10] it was 0.06 nM. In addition, the Kd in assay [6] and in [9] was 0.001 nM each time. Further, the “MFI (mean fluorescent intensity)” value in [7] and in assay [8] was 2 throughout.

B3: MOR05271 IgG4 (antibody, V domains shown)
VH: QVQLKESGPALVKPTQTLTLTCTFSGFSLSTSTMGVSWIRQPPGKALEWLAWIYWDDDKDYSTSLKSRLTISKDTSKNQVVLTMTNMDPVDTATYYCARANPDLGYFDYWGQGTLVTVSS
VL: DIALTQPASVSGSPGQSITISCTGTSSDLGESNYVSWYQQHPGKAPKVMIYDVNKRPSGVSNRFSGSKSGNTASLTISGLQAEDEADYYCGSYDEEDNVFGGGTKLTVLG
notes: IgG4
With B3, the binding result in assay [1] is “no binding”. Moreover, the “MFI (mean fluorescent intensity)” value in [2] stood at 134. In addition, the EC50 is 0.073 nM in assay [3] and 0.143 nM in assay [4].

B4: MOR05271 Fab (Fab, V domains shown)
VH: QVQLKESGPALVKPTQTLTLTCTFSGFSLSTSTMGVSWIRQPPGKALEWLAWIYWDDDKDYSTSLKSRLTISKDTSKNQVVLTMTNMDPVDTATYYCARANPDLGYFDYWGQGTLVTVSS
VL: DIALTQPASVSGSPGQSITISCTGTSSDLGESNYVSWYQQHPGKAPKVMIYDVNKRPSGVSNRFSGSKSGNTASLTISGLQAEDEADYYCGSYDEEDNVFGGGTKLTVLG
As to B4, the EC50 in assay [5] came to 0.025 nM; in assay [10], 0.01 nM. For the same molecule, the Kd in assay [6] and in [9] was 0.021 nM in each case. Besides, the results for the “MFI (mean fluorescent intensity)” value in assay [7] and in assay [8] were 3 and 2, respectively.

B5: MOR05278 IgG4 (antibody, V domains shown)
VH: QVQLVESGGGLVQPGGSLRLSCAASGFTFSSYGMSWVRQAPGKGLEWVSYIEPKLFWYATFYAASVKGRFTISRDNSKNTLYLQMNSLRAEDTAVYYCARNDFMEPAYFALWGQGTLVTVSS
VL: DIELTQPPSVSVAPGQTARISCSGDNLGSYYAYWYQQKPGQAPVGVIYDDSERPSGIPERFSGSNSGNTATLTISGTQAEDEADYYCSSYTYSKNNVFGGGTKLTVLG
notes: IgG4
Consider B5, for which the binding result in assay [1] was “no binding”. Further, in assay [2], the “MFI (mean fluorescent intensity)” value turned out to be 350. Moreover, the results for the EC50 in assay [3] and in assay [4] were 0.931 nM and 0.9 nM, respectively.

B6: MOR05278 Fab (Fab, V domains shown)
VH: QVQLVESGGGLVQPGGSLRLSCAASGFTFSSYGMSWVRQAPGKGLEWVSYIEPKLFWYATFYAASVKGRFTISRDNSKNTLYLQMNSLRAEDTAVYYCARNDFMEPAYFALWGQGTLVTVSS
VL: DIELTQPPSVSVAPGQTARISCSGDNLGSYYAYWYQQKPGQAPVGVIYDDSERPSGIPERFSGSNSGNTATLTISGTQAEDEADYYCSSYTYSKNNVFGGGTKLTVLG
For B6, the EC50 was determined as 0.24 nM in [5] and 0.08 nM in assay [10]. For the same molecule, the Kd in assay [6] and in assay [9] was 0.031 nM each time. Besides, the “MFI (mean fluorescent intensity)” value in assay [7] came out at 4; in assay [8], 3.

B7: MOR05286 Fab (Fab, V domains shown)
VH: QVQLKESGPALVKPTQTLTLTCTFSGFSLSTSGMGVSWIRQPPGKALEWLALIDWTDDKYYSTSLKTRLTISKDTSKNQVVLTMTNMDPVDTATYYCARTVGKGLYRVDNWGQGTLVTVSS
VL: DIELTQPPSVSVAPGQTARISCSGDNLGSKFAYWYQQKPGQAPVLVIYDDSKRPSGIPERFSGSNSGNTATLTISGTQAEDEADYYCQSWDSSSGNDVFGGGTKLTVLG
notes: also called MOR5286
B7: the EC50 in assay [5] was 0.17 nM; in [10], 0.09 nM. Also, the Kd in assay [6] and in assay [9] was 0.059 nM throughout. Moreover, the “MFI (mean fluorescent intensity)” value in [7] came to 249; in assay [8], 368.

B8: MOR05286 IgG4 (antibody, V domains shown)
VH: QVQLKESGPALVKPTQTLTLTCTFSGFSLSTSGMGVSWIRQPPGKALEWLALIDWTDDKYYSTSLKTRLTISKDTSKNQVVLTMTNMDPVDTATYYCARTVGKGLYRVDNWGQGTLVTVSS
VL: DIELTQPPSVSVAPGQTARISCSGDNLGSKFAYWYQQKPGQAPVLVIYDDSKRPSGIPERFSGSNSGNTATLTISGTQAEDEADYYCQSWDSSSGNDVFGGGTKLTVLG
notes: IgG4; also called MOR5286
Take B8: in assay [1], the binding result is reported as “no binding”. The “MFI (mean fluorescent intensity)” value in [2] was found to be 271. Also, the EC50 is 4.8 nM in assay [3] and 2.4 nM in [4].
